Test results as given in the supplement of paper PMC10567573.
± gives the standard deviation.

Test: protein stability index of a GFP-peptide fusion (GPS, HEK-293T) (PSI 1-6); higher = more stable
[1] = treatment: DMSO, c terminus: a fixed tail appended
[2] = treatment: MLN4924 1 uM, 8 h, c terminus: a fixed tail appended
[3] = treatment: DMSO, c terminus: native
[4] = treatment: MLN4924 1 uM, 8 h, c terminus: native
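Note: 24-mer peptide tiles fused after GFP, lentivirally expressed, FACS-sorted into six equal bins by GFP/DsRed ratio, decoded by Illumina sequencing, PSI is the read-weighted mean bin number.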

Row | Sequence | protein stability index [1] | protein stability index [2] | protein stability index [3] | protein stability index [4]
1 | GVFGFFATIVFATDFYLIFNDVAK [CMTM3] | 2.75 ± 0.27 | 3.44 ± 0.43 | – | –
2 | LGYQAVPSGSSGSLSTSSSSSPPG [CEBPB] | 4.78 ± 0.12 | 4.85 ± 0.14 | – | –
3 | AKGWGPCYSRQFITSCPCWLEILL [SMAD6] | 2.69 ± 0.29 | 2.8 ± 0.42 | – | –
4 | RQQRLNQLEKPPEKEEDHAPEFIK [FAM107A] | 5.33 ± 0.15 | 5.34 ± 0.35 | – | –
5 | NLPNLAAAYSSILSSLGENPQRQG [GCH1] | 3.03 ± 0.2 | 3.2 ± 0.43 | – | –
6 | DGRSLSKLNLCEDGPCHKRRASIC [SCARA5] | 3.88 ± 0.33 | 3.93 ± 0.3 | – | –
7 | GVVQALIVGYAFHFPHLLSPQIQR [TMEM175] | 3.53 ± 0.28 | 3.25 ± 0.25 | – | –
8 | EPLVLYNQNLSNRPSFNRTPIPWL [MYOZ1] | 2.39 ± 0.4 | 2.44 ± 0.17 | – | –
9 | KIWRTPNGKTIEMDTQFTIRAREL [IQUB] | 2.55 ± 0.24 | 2.66 ± 0.19 | – | –
10 | VLQIDNAKLAADDFRTKYETELSL [KRT36] | 3.54 ± 0.37 | 3.49 ± 0.14 | – | –
11 | TSKCGSLKNIRHRPGGGRVKIESV [MAP2] | 3.1 ± 0.21 | 3.3 ± 0.44 | – | –
12 | DWEIQEDSRLMCSSVQKALFEEED [CCDC3] | 5.34 ± 0.25 | 5.54 ± 0.36 | – | –
13 | EELDKYWSQQIEESTTVVTTQSAE [KRT18] | 5.16 ± 0.27 | 5.23 ± 0.25 | – | –
14 | LKSLIRLVKHWYQNCKKKLGKLPP [OAS1] | 2.94 ± 0.36 | 3.02 ± 0.25 | – | –
15 | VNSVCWASLNHLDSHILLCLMGLA [DCAF4] | 2.51 ± 0.63 | 2.69 ± 0.36 | – | –
16 | LLCVNYFFYGETVTDYFFTLVQRE [CDS2] | 2.9 ± 0.36 | 3.2 ± 0.41 | – | –
17 | TFLPYTFSLMVTFPDVPLGIFLFC [TMEM175] | 2.49 ± 0.14 | 2.98 ± 0.8 | – | –
18 | LTEQQEQLRGQLQDLDSRLRAGSS [RASAL3] | 5.08 ± 0.18 | 5.19 ± 0.23 | – | –
19 | KDSVMQQNLVYYRFHRARWGLEEE [P3H4] | 2.51 ± 0.28 | 2.43 ± 0.085 | – | –
20 | SALTFLRVDQDKDKDCSLDCAGSP [SMOC2] | 4.92 ± 0.42 | 5 ± 0.088 | – | –
21 | PSRKYISTKAIPEKYGAVREVILK [ZBED1] | 2.87 ± 0.18 | 2.92 ± 0.34 | – | –
22 | LIWSYPAGSLTFPVRPFFYTGHR [TRIM43] | – | – | 1.97 ± 0.37 | 2.15 ± 0.11
23 | ISTSGQAGTSSHGCWAWPLAGLSV [PXN] | 2.33 ± 0.47 | 2.25 ± 0.26 | – | –

Row | Sequence | protein stability index [1] | protein stability index [2] | protein stability index [3] | protein stability index [4]
24 | AELLKKQEELNRKAEELDRREREL [SCAMP3] | 5.43 ± 0.26 | 5.44 ± 0.33 | – | –
25 | SSLRRQFEFSVDSFQIVLDPMLDF [TENT5D] | 2.41 ± 0.32 | 2.17 ± 0.25 | – | –
26 | AAALKCQLCEKAPKEATVMCEQCD [TRIM9] | 5.33 ± 0.22 | 5.4 ± 0.15 | – | –
27 | HSLYRRTGASFQKAQQEFAAGVFS [SCAMP3] | 2.81 ± 0.14 | 2.85 ± 0.14 | – | –
28 | LKFDNSYSLWRSKSVYYRVYYTR [ACBD3] | – | – | 2.52 ± 0.6 | 2.29 ± 0.71
29 | VNVGTTALWKHLKSMHREELEKSG [ZBED2] | 3.65 ± 0.24 | 3.48 ± 0.23 | – | –
30 | FNIFDWLGRSLTAVFMWPGKDSRW [SLC29A1] | 2.45 ± 0.79 | 2.63 ± 0.5 | – | –
31 | SGFLKEMACPYSVLISGDIKDRLK [FAM98B] | 2.38 ± 0.49 | 2.52 ± 0.18 | – | –
32 | AIVQQVPAPSRMQMPQGNPLLLSH [SNX8] | 2.72 ± 0.38 | 2.7 ± 0.31 | – | –
33 | LDPQPITDEEEGLIWVVGPVLAVV [PTPRD] | 2.02 ± 0.41 | 2.42 ± 0.27 | – | –
34 | TREAHRESSVPVTPSVPPPASQHS [FBF1] | 4.94 ± 0.099 | 5.07 ± 0.12 | – | –
35 | RKSVPGPGNRTCTGTSKRYQLCRV [ADAMTSL2] | 2.91 ± 0.41 | 2.68 ± 0.093 | – | –
36 | LDDIYYFGGQNAHNQIAIYAHQPR [FUT8] | 2.87 ± 0.41 | 2.92 ± 0.39 | – | –
37 | RAGPDSAGIALYSHEDVCVFKCSV [CARM1] | 2.35 ± 0.47 | 2.06 ± 0.41 | – | –
38 | NQSFNIVDIKPANMEELTEVITAA [PPP2R2B] | 4.18 ± 0.26 | 4.26 ± 0.16 | – | –
39 | FMLMLLVLGIQVKCFHEIITIGYR [CDS1] | 3.31 ± 0.45 | 3.3 ± 0.41 | – | –
40 | LLGWGYYLIMLPFRFTYYTILDIF [FAF2] | 4.59 ± 0.36 | 4.7 ± 0.17 | – | –
41 | AKQQKFIKAVTHQVKFGQQNPRQV [ZC3H15] | 3.19 ± 0.22 | 3.4 ± 0.3 | – | –
42 | GLIISGPILQEGMDEEKLKQLNCV [DLC1] | 3.52 ± 0.2 | 3.42 ± 0.3 | – | –
43 | STPFKPLALKTPPRVLTLSERPLD [MFF] | 4.08 ± 0.17 | 4 ± 0.15 | – | –
44 | SREFFNRRGELRHITKLKPWSLFD [SRPK2] | 2.56 ± 0.07 | 2.9 ± 0.32 | – | –
45 | SIIHQMEKFSSSLHELSSRVEASH [FBF1] | 2.72 ± 0.21 | 2.96 ± 0.2 | – | –
46 | SPAQQVPKNPALEAFLAQFSQLED [TOR1AIP2] | 4.26 ± 0.45 | 4.38 ± 0.31 | – | –

Row | Sequence | protein stability index [1] | protein stability index [2] | protein stability index [3] | protein stability index [4]
47 | PVTERQIEREHLIQLRRWQETRGE [TBC1D10A] | 4.25 ± 0.14 | 4.33 ± 0.18 | – | –
48 | FDPDAKGLSDPGKIKRLRSQVQVS [HNF4A] | 3.84 ± 0.18 | 4.06 ± 0.28 | – | –
49 | PICSANHKESKMTIFEKENFIGRQ [CRYBA1] | 3.34 ± 0.27 | 3.46 ± 0.18 | – | –
50 | SQVMGSGRGSLSSGGQTSWDSGCL [PLEKHN1] | 4.02 ± 0.14 | 3.98 ± 0.13 | – | –
51 | ANKYLVEDVLLLNFEEMRALLDSL [KLHL14] | 2.34 ± 0.21 | 2.37 ± 0.19 | – | –
52 | DLYRDVMLENYSNLVSVGYQAGKP [ZNF649] | 2.82 ± 0.53 | 2.85 ± 0.23 | – | –
53 | YQNSIDDRLLVERIFAQYMVPHNL [PDS5B] | 2.21 ± 0.55 | 2.46 ± 0.79 | – | –
54 | VMFQRRYYKPGLLMMCFILPTLVP [SCD] | 3.51 ± 0.77 | 2.72 ± 0.71 | – | –
55 | TSPHFSTRHEGSFQVPVLCAVMNV [CD69] | 2.81 ± 0.51 | 2.63 ± 0.59 | – | –
56 | IFRSYSRGAQGILLVYDITNRWSF [RAB40C] | 2.52 ± 0.7 | 2.61 ± 0.73 | – | –
57 | VLVLTKPLGTQVAVNAHQWLDNPE [SEPHS2] | 2.4 ± 0.18 | 2.19 ± 0.37 | – | –
58 | EGASSQIGRAAGTGFTVNVAWNGP [HDAC6] | 3.13 ± 0.34 | 3.38 ± 0.29 | – | –
59 | YDPKENKWTRVASMSTRRLGVAVA [KLHL20] | 2.29 ± 0.27 | 2.38 ± 0.28 | – | –
60 | FKHTLSISRALLSDVVPEKERPLV [MFSD9] | 3.04 ± 0.12 | 3.24 ± 0.21 | – | –
61 | ELFIITQLQSMPSRELASMNLDIV [RHOBTB3] | 2.31 ± 0.85 | 3.25 ± 0.55 | – | –
62 | QPRGGVSSRIEQGEWGGRHPSWPW | 2.99 ± 0.44 | 3 ± 0.68 | – | –
63 | ESEGSESSGRSCRNERSIQEKLQV [SMG5] | 4.82 ± 0.12 | 4.75 ± 0.27 | – | –
64 | WKDIIHNPQALSPQFTGILQLLQS [INTS3] | 2.11 ± 0.34 | 2.14 ± 0.23 | – | –
65 | SRRVLLTNVVTGHRQSFGTNSDVL [DCAF4] | 2.87 ± 0.28 | 3.04 ± 0.26 | – | –
66 | IEIATYRKLLEGEESRISVPVHSF [PRPH] | 2.47 ± 0.26 | 2.47 ± 0.21 | – | –
67 | EDVKCQEDQKLQVLLTQIESKKHQ [TRIM15] | 5.12 ± 0.32 | 5.18 ± 0.1 | – | –
68 | ISRKLGDMRNSATFKSFEDRVGTI [TPD52L2] | 2.98 ± 0.22 | 3.07 ± 0.24 | – | –
69 | MSDYRGFGIGSEILKNLSQVAMRC [SAT1] | 2.11 ± 0.48 | 2.46 ± 0.56 | – | –

Row | Sequence | protein stability index [1] | protein stability index [2] | protein stability index [3] | protein stability index [4]
70 | PEGNILRDRFKSFQRRNMIEPRER [NOP53] | 4.25 ± 0.31 | 4.29 ± 0.36 | – | –
71 | IDPLLYMTEWFMCAFSRTLPWSSV [TBC1D10A] | 3.43 ± 0.23 | 3.16 ± 0.27 | – | –
72 | IRDLDVVVVSVAGAFRKGKSFILD [ATL3] | 2.3 ± 0.64 | 2.34 ± 0.45 | – | –
73 | FLFNSELLSDVRFVLGKGRGAAAA [BTBD1] | 2.12 ± 0.33 | 2.33 ± 0.34 | – | –
74 | AWNSPFYNCGEESLQSCMHFQPNS [NANOGP8] | 2.41 ± 0.13 | 2.43 ± 0.41 | – | –
75 | SVQVDGQARTQKLQGLIPGARYEV [TNXB] | 2.6 ± 0.62 | 3.28 ± 0.26 | – | –
76 | ASREENQAGPEATTSDPQDLDMKK [PALM] | 5.53 ± 0.46 | 5.43 ± 0.42 | – | –
77 | EEREKEAAEQAERSQSSIVPEEEQ [SMARCE1] | 5.62 ± 0.36 | 5.57 ± 0.15 | – | –
78 | VLGFLIENFKGLAIPYLEHIIHVW [VPS39] | 2.36 ± 0.46 | 2.5 ± 0.31 | – | –
79 | SPTGLSPYLRFGCLSCRLFYFKLT [CRY1] | 1.84 ± 0.27 | 2.14 ± 0.43 | – | –
80 | GHAAPGTDAGKAFCMFYAVLGIPL [KCNK9] | 2.81 ± 0.19 | 2.84 ± 0.39 | – | –
81 | SAYISNYAFANVFHGWKYMFGLVI [SLC2A12] | 2.91 ± 0.38 | 2.9 ± 0.67 | – | –
82 | IQENQRNLYEEGRTAFLWRGNVVL [TRIM43] | 2.21 ± 0.43 | 2.61 ± 0.37 | – | –
83 | PLCNFNVIESFTELSRIVLMRHGM [RAB40C] | 2.94 ± 0.45 | 2.73 ± 0.41 | – | –
84 | LTNSNLPEEELDFFEILRLFFPVI [CNOT7] | 2.39 ± 0.31 | 2.47 ± 0.41 | – | –
85 | GEVVKIPSRVHGSLEPFRPQQAPQ [PWWP2B] | 4.22 ± 0.21 | 4.16 ± 0.23 | – | –
86 | IRTKLNYNPPKDDGSTYKIELEGI [GAN] | 2.76 ± 0.1 | 2.84 ± 0.39 | – | –
87 | LPNHKPKGTFKDYVRDRADLNKDK [ETS1] | 4.552 ± 0.017 | 4.74 ± 0.32 | – | –
88 | TLGEVPAAESPDPPQSPQGASSLP [MAGEA3] | 5.5 ± 0.22 | 5.37 ± 0.1 | – | –
89 | LAIKKQQHIDNITQIEDATEKLKA [TRIM14] | 4.41 ± 0.27 | 4.38 ± 0.21 | – | –
